# Measurements as given in patent US20210032299A1 (Eli Lilly, published 2021).
# Starred links: 1 amine or outer side, 2 acyl side, 3 side chain; linkers in the order of their positions; H or OH if unused. Non-standard residues stand in square brackets, D forms with d. Groups on a side chain read outwards from the residue. No end group written: not given here. *: point of attachment. C20 diacid = O=C(O)CCCCCCCCCCCCCCCCCCC(=O)*; C18 diacid = O=C(O)CCCCCCCCCCCCCCCCC(=O)*; γGlu = O=C(O)[C@H](CCC(=O)[*:2])N[*:1]; 4Pal = N[C@@H](Cc1ccncc1)C(=O)O; αMeL = CC(C)C[C@](C)(N)C(=O)O; Orn = NCCC[C@H](N)C(=O)O; AEEA = NCCOCCOCC(=O)O; Aib = CC(C)(N)C(=O)O
# Columns and labels:
# [1] = biological target: T1, human glucose-dependent insulinotropic polypeptide (GIP) receptor (human, UniProt P48546 22-466); test: SPA, displacement of [125I]-GIP from hGIPR membranes, 0.1% bacitracin
# T1 construct: whole, on cells; Assayed as crude membranes of stably transfected CHO cells; also called hGIPR; human GIP receptor
# T1 sequence (looked up): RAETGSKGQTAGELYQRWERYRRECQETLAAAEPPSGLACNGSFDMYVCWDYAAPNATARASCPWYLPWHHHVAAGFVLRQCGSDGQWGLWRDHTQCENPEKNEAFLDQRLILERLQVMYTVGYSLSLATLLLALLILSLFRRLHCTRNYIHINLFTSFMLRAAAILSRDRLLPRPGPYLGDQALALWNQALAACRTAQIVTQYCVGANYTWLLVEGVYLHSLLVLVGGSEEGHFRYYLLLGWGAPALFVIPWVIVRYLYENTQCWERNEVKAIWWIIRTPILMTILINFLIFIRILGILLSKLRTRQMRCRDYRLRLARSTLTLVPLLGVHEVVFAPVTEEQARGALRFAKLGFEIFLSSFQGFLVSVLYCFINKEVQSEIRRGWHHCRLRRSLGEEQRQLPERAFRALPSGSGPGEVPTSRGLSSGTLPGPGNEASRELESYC
# Procedure: The binding buffer contains 25 mM HEPES, pH 7.4, 2.5 mM CaCl₂, 1 mM MgCl₂, 0.1% (w/v) bacitracin, 0.003% (w/v) TWEEN®-20, and Roche Complete™ Protease Inhibitors without EDTA. […] Plates are sealed and mixed on a plate shaker (setting 6) for 1 minute and read with a PerkinElmer Trilux MicroBeta® scintillation counter after 2.5 to 12 hours of incubation/settling time at room temperature.
# (§1) Data are analyzed using four-parameter (curve maximum, curve minimum, […], Hill slope) nonlinear regression routines (Genedata Screener, version 12.0.4, Genedata AG, Basal, Switzerland). […] Values for Kᵢ are reported as the geometric mean, with error expressed as the standard error of the mean (SEM) and n is equal to the number of independent replicates (determined in assays performed on different days). Geometric Means are calculated as follows: […]
# [2] = biological target: T2, human GLP-1 receptor (human, UniProt P43220 24-463); test: SPA, displacement of [125I]-GLP-1 from hGLP-1R membranes, 0.1% bacitracin
# T2 construct: whole, on cells; Assayed as crude membranes of stably transfected HEK293 cells; also called hGLP1R; hGLP-1R
# Procedure: The binding buffer contains 25 mM HEPES, pH 7.4, 2.5 mM CaCl₂, 1 mM MgCl₂, 0.1% (w/v) bacitracin, 0.003% (w/v) TWEEN®-20, and Roche Complete™ Protease Inhibitors without EDTA.
# as §1
Binder,Ki [1] [nM],Ki [2] [nM]
Y[Aib]EGTFISDYSI[αMeL]LDKIHQ[Aib]DFVEYK([AEEA-AEEA-γGlu-C20 diacid])LEQGPSSGAPPPS-NH2 (N-terminus assumed; SMILES CC[C@H](C)[C@H](NC(=O)[C@H](CCCCN)NC(=O)[C@H](CC(=O)O)NC(=O)[C@H](CC(C)C)NC(=O)[C@](C)(CC(C)C)NC(=O)[C@@H](NC(=O)[C@H](CO)NC(=O)[C@H](Cc1ccc(O)cc1)NC(=O)[C@H](CC(=O)O)NC(=O)[C@H](CO)NC(=O)[C@@H](NC(=O)[C@H](Cc1ccccc1)NC(=O)[C@@H](NC(=O)CNC(=O)[C@H](CCC(=O)O)NC(=O)C(C)(C)NC(=O)[C@@H](N)Cc1ccc(O)cc1)[C@@H](C)O)[C@@H](C)CC)[C@@H](C)CC)C(=O)N[C@@H](Cc1c[nH]cn1)C(=O)N[C@@H](CCC(N)=O)C(=O)NC(C)(C)C(=O)N[C@@H](CC(=O)O)C(=O)N[C@@H](Cc1ccccc1)C(=O)N[C@H](C(=O)N[C@@H](CCC(=O)O)C(=O)N[C@@H](Cc1ccc(O)cc1)C(=O)N[C@@H](CCCCNC(=O)COCCOCCNC(=O)COCCOCCNC(=O)CC[C@H](NC(=O)CCCCCCCCCCCCCCCCCCC(=O)O)C(=O)O)C(=O)N[C@@H](CC(C)C)C(=O)N[C@@H](CCC(=O)O)C(=O)N[C@@H](CCC(N)=O)C(=O)NCC(=O)N1CCC[C@H]1C(=O)N[C@@H](CO)C(=O)N[C@@H](CO)C(=O)NCC(=O)N[C@@H](C)C(=O)N1CCC[C@H]1C(=O)N1CCC[C@H]1C(=O)N1CCC[C@H]1C(=O)N[C@@H](CO)C(N)=O)C(C)C) [Example 92],0.0331,–
YXEGTFISDYSILLDKKHQXDFVNWLLAQGPSSGAPPPS (D-Ala2; K17((2-[2-(2-Amino-ethoxy)-ethoxy]-acetyl)2-(γ-Glu)-CO-(CH2)18-CO2H); Aib20; C-terminal amide) [Example 9],0.11,168
Y[Aib]EGTFISDYSILLDKK([AEEA-AEEA-γGlu-C18 diacid])HQ[Aib]DFVNYLLAAGPSSGAPPPS-NH2 (N-terminus assumed; SMILES CC[C@H](C)[C@H](NC(=O)[C@H](CO)NC(=O)[C@H](Cc1ccc(O)cc1)NC(=O)[C@H](CC(=O)O)NC(=O)[C@H](CO)NC(=O)[C@@H](NC(=O)[C@H](Cc1ccccc1)NC(=O)[C@@H](NC(=O)CNC(=O)[C@H](CCC(=O)O)NC(=O)C(C)(C)NC(=O)[C@@H](N)Cc1ccc(O)cc1)[C@@H](C)O)[C@@H](C)CC)C(=O)N[C@@H](CC(C)C)C(=O)N[C@@H](CC(C)C)C(=O)N[C@@H](CC(=O)O)C(=O)N[C@@H](CCCCN)C(=O)N[C@@H](CCCCNC(=O)COCCOCCNC(=O)COCCOCCNC(=O)CC[C@H](NC(=O)CCCCCCCCCCCCCCCCC(=O)O)C(=O)O)C(=O)N[C@@H](Cc1c[nH]cn1)C(=O)N[C@@H](CCC(N)=O)C(=O)NC(C)(C)C(=O)N[C@@H](CC(=O)O)C(=O)N[C@@H](Cc1ccccc1)C(=O)N[C@H](C(=O)N[C@@H](CC(N)=O)C(=O)N[C@@H](Cc1ccc(O)cc1)C(=O)N[C@@H](CC(C)C)C(=O)N[C@@H](CC(C)C)C(=O)N[C@@H](C)C(=O)N[C@@H](C)C(=O)NCC(=O)N1CCC[C@H]1C(=O)N[C@@H](CO)C(=O)N[C@@H](CO)C(=O)NCC(=O)N[C@@H](C)C(=O)N1CCC[C@H]1C(=O)N1CCC[C@H]1C(=O)N1CCC[C@H]1C(=O)N[C@@H](CO)C(N)=O)C(C)C) [Example 31],0.0473,266
YXEGTXISDYSIXLDKKHQXDFVEXLLETGPSSGAPPPS (Aib2; Iva6; αMeL13; K17((2-[2-(2-Amino-ethoxy)-ethoxy]-acetyl)2-(γ-Glu)-CO-(CH2)18-CO2H); Aib20; 4-Pal25; C-terminal amide) [Example 75],0.0626,–
YXEGTXISDYSIXLDXKHQXDFVEXLLETGPSSGAPPPS (Aib2; Iva6; αMeL13; Orn16; K17((2-[2-(2-Amino-ethoxy)-ethoxy]-acetyl)2-(γ-Glu)-CO-(CH2)18-CO2H); Aib20; 4-Pal25; C-terminal amide) [Example 77],0.0841,–
Y[Aib]EGTFISDYSI[αMeL]LD[Orn]K([AEEA-AEEA-γGlu-C20 diacid])HQ[Aib]DFVE[4Pal]LLETGPSSGAPPPS-NH2 (N-terminus assumed; SMILES CC[C@H](C)[C@H](NC(=O)[C@H](Cc1ccccc1)NC(=O)[C@@H](NC(=O)CNC(=O)[C@H](CCC(=O)O)NC(=O)C(C)(C)NC(=O)[C@@H](N)Cc1ccc(O)cc1)[C@@H](C)O)C(=O)N[C@@H](CO)C(=O)N[C@@H](CC(=O)O)C(=O)N[C@@H](Cc1ccc(O)cc1)C(=O)N[C@@H](CO)C(=O)N[C@H](C(=O)N[C@@](C)(CC(C)C)C(=O)N[C@@H](CC(C)C)C(=O)N[C@@H](CC(=O)O)C(=O)N[C@@H](CCCN)C(=O)N[C@@H](CCCCNC(=O)COCCOCCNC(=O)COCCOCCNC(=O)CC[C@H](NC(=O)CCCCCCCCCCCCCCCCCCC(=O)O)C(=O)O)C(=O)N[C@@H](Cc1c[nH]cn1)C(=O)N[C@@H](CCC(N)=O)C(=O)NC(C)(C)C(=O)N[C@@H](CC(=O)O)C(=O)N[C@@H](Cc1ccccc1)C(=O)N[C@H](C(=O)N[C@@H](CCC(=O)O)C(=O)N[C@@H](Cc1ccncc1)C(=O)N[C@@H](CC(C)C)C(=O)N[C@@H](CC(C)C)C(=O)N[C@@H](CCC(=O)O)C(=O)N[C@H](C(=O)NCC(=O)N1CCC[C@H]1C(=O)N[C@@H](CO)C(=O)N[C@@H](CO)C(=O)NCC(=O)N[C@@H](C)C(=O)N1CCC[C@H]1C(=O)N1CCC[C@H]1C(=O)N1CCC[C@H]1C(=O)N[C@@H](CO)C(N)=O)[C@@H](C)O)C(C)C)[C@@H](C)CC) [Example 80],0.0828,–
Y[dA]EGTFISDYSILLDKK([AEEA-AEEA-γGlu-C20 diacid])HQQDFVEWLLAQGPSSGAPPPS-NH2 (N-terminus assumed; SMILES CC[C@H](C)[C@H](NC(=O)[C@H](CO)NC(=O)[C@H](Cc1ccc(O)cc1)NC(=O)[C@H](CC(=O)O)NC(=O)[C@H](CO)NC(=O)[C@@H](NC(=O)[C@H](Cc1ccccc1)NC(=O)[C@@H](NC(=O)CNC(=O)[C@H](CCC(=O)O)NC(=O)[C@@H](C)NC(=O)[C@@H](N)Cc1ccc(O)cc1)[C@@H](C)O)[C@@H](C)CC)C(=O)N[C@@H](CC(C)C)C(=O)N[C@@H](CC(C)C)C(=O)N[C@@H](CC(=O)O)C(=O)N[C@@H](CCCCN)C(=O)N[C@@H](CCCCNC(=O)COCCOCCNC(=O)COCCOCCNC(=O)CC[C@H](NC(=O)CCCCCCCCCCCCCCCCCCC(=O)O)C(=O)O)C(=O)N[C@@H](Cc1c[nH]cn1)C(=O)N[C@@H](CCC(N)=O)C(=O)N[C@@H](CCC(N)=O)C(=O)N[C@@H](CC(=O)O)C(=O)N[C@@H](Cc1ccccc1)C(=O)N[C@H](C(=O)N[C@@H](CCC(=O)O)C(=O)N[C@@H](Cc1c[nH]c2ccccc12)C(=O)N[C@@H](CC(C)C)C(=O)N[C@@H](CC(C)C)C(=O)N[C@@H](C)C(=O)N[C@@H](CCC(N)=O)C(=O)NCC(=O)N1CCC[C@H]1C(=O)N[C@@H](CO)C(=O)N[C@@H](CO)C(=O)NCC(=O)N[C@@H](C)C(=O)N1CCC[C@H]1C(=O)N1CCC[C@H]1C(=O)N1CCC[C@H]1C(=O)N[C@@H](CO)C(N)=O)C(C)C) [Example 14],0.46,–
Y[dA]EGTFISDYSILLDKK([AEEA-AEEA-γGlu-C20 diacid])HQQDFVNYLLAQGPSSGAPPPS-NH2 (N-terminus assumed; SMILES CC[C@H](C)[C@H](NC(=O)[C@H](CO)NC(=O)[C@H](Cc1ccc(O)cc1)NC(=O)[C@H](CC(=O)O)NC(=O)[C@H](CO)NC(=O)[C@@H](NC(=O)[C@H](Cc1ccccc1)NC(=O)[C@@H](NC(=O)CNC(=O)[C@H](CCC(=O)O)NC(=O)[C@@H](C)NC(=O)[C@@H](N)Cc1ccc(O)cc1)[C@@H](C)O)[C@@H](C)CC)C(=O)N[C@@H](CC(C)C)C(=O)N[C@@H](CC(C)C)C(=O)N[C@@H](CC(=O)O)C(=O)N[C@@H](CCCCN)C(=O)N[C@@H](CCCCNC(=O)COCCOCCNC(=O)COCCOCCNC(=O)CC[C@H](NC(=O)CCCCCCCCCCCCCCCCCCC(=O)O)C(=O)O)C(=O)N[C@@H](Cc1c[nH]cn1)C(=O)N[C@@H](CCC(N)=O)C(=O)N[C@@H](CCC(N)=O)C(=O)N[C@@H](CC(=O)O)C(=O)N[C@@H](Cc1ccccc1)C(=O)N[C@H](C(=O)N[C@@H](CC(N)=O)C(=O)N[C@@H](Cc1ccc(O)cc1)C(=O)N[C@@H](CC(C)C)C(=O)N[C@@H](CC(C)C)C(=O)N[C@@H](C)C(=O)N[C@@H](CCC(N)=O)C(=O)NCC(=O)N1CCC[C@H]1C(=O)N[C@@H](CO)C(=O)N[C@@H](CO)C(=O)NCC(=O)N[C@@H](C)C(=O)N1CCC[C@H]1C(=O)N1CCC[C@H]1C(=O)N1CCC[C@H]1C(=O)N[C@@H](CO)C(N)=O)C(C)C) [Example 15],0.471,–
